In publication PMC12489471, “A multi-dentate, cooperative interaction between endo- and exo-ribonucleases within the bacterial RNA degradosome” (Nucleic Acids Research, 2025):
Read-outs that look alike come from different tables or passages of the source. Where no end group is shown, it is not given here.

B1: E. coli PNPase (enzyme, UniProt P05055 1-711, looked up)
chain: MLNPIVRKFQYGQHTVTLETGMMARQATAAVMVSMDDTAVFVTVVGQKKAKPGQDFFPLTVNYQERTYAAGRIPGSFFRREGRPSEGETLIARLIDRPIRPLFPEGFVNEVQVIATVVSVNPQVNPDIVAMIGASAALSLSGIPFNGPIGAARVGYINDQYVLNPTQDELKESKLDLVVAGTEAAVLMVESEAQLLSEDQMLGAVVFGHEQQQVVIQNINELVKEAGKPRWDWQPEPVNEALNARVAALAEARLSDAYRITDKQERYAQVDVIKSETIATLLAEDETLDENELGEILHAIEKNVVRSRVLAGEPRIDGREKDMIRGLDVRTGVLPRTHGSALFTRGETQALVTATLGTARDAQVLDELMGERTDTFLFHYNFPPYSVGETGMVGSPKRREIGHGRLAKRGVLAVMPDMDKFPYTVRVVSEITESNGSSSMASVCGASLALMDAGVPIKAAVAGIAMGLVKEGDNYVVLSDILGDEDHLGDMDFKVAGSRDGISALQMDIKIEGITKEIMQVALNQAKGARLHILGVMEQAINAPRGDISEFAPRIHTIKINPDKIKDVIGKGGSVIRALTEETGTTIEIEDDGTVKIAATDGEKAKHAIRRIEEITAEIEVGRVYTGKVTRIVDFGAFVAIGGGKEGLVHISQIADKRVEKVTDYLQMGQEVPVKVLEVDRQGRIRLSIKEATEQSQPAAAPEAPAAEQGE
notes: polynucleotide phosphorylase (PNPase), E. coli; also called polynucleotide phosphorylase; full-length PNPase; source: E. coli BL21(DE3), purified (ammonium sulfate, Q, butyl-Sepharose, SEC)

Columns and labels:
PNPase = molecular target: T1, PNPase (Escherichia coli, UniProt P05055); type: binding, E. coli; settings: SPR, 25°C, immobilized PNPase C-His, HEPES pH 7.2, contact 60 s
T1 construct: made in house; host or cells: E. coli Evo21(DE3)
Description: Briefly, at the N-terminal of the construct, there is an Hisx6 affinity tag that will be used for affinity purification. Following the Hisx6 tag there is an maltose-binding protein (MBP) tag with a TEV cleavage site to maintain solubility of the peptides. Following the MBP tag the gene encoding the peptide is inserted, and is then followed by intein, a self-cleavable tag, followed by a choline-binding domain, which can be used for an extra step of affinity purification. […] After expression, cells were harvested, resuspended in Lysis Buffer 2 (20 mM Tris–HCl, pH 8.0, 80 mM KCl, 300 mM NaCl, 20 mM Imidazole, 0.5 mM TCEP), and lysed with a cell disruptor (Emulsiflex, Avestin). […] After subsequent rounds of washing with Ni Equilibration Buffer supplemented with, respectively, 0.1% Triton-X, 1 M NaCl, and a final wash in Ni Equilibration Buffer, samples were eluted with Ni Elution Buffer (20 mM Tris–HCl, pH 8.0, 300 mM NaCl, 300 mM imidazole, 0.5 mM TCEP). Enriched fractions were then supplemented with 100 mM β-mercaptoethanol to catalyse intein self-cleavage overnight at room temperature. Treated samples were filtered and loaded on an amylose gravity flow column, equilibrated with Amy Equilibration Buffer (20 mM Tris–HCl, pH 8.0, 20 mM NaCl, 20 mM imidazole, 2 mM β-mercaptoethanol) and after washing, His-tagged TEV protease was applied to the resin and incubated at 4°C for 2 h.
PNPase carrying a C-terminal Hisx6 tag was expressed from pExp-cis-Ec_PNP-CHis vector in E. coli Evo21(DE3) cells, induced with 0.4 mM IPTG, at 18°C overnight. After expression, cells were harvested and resuspended in Lysis Buffer 2 (20 mM Tris–HCl, pH 8.0, 80 mM KCl, 300 mM NaCl, 20 mM imidazole, 0.5 mM TCEP), and lysed with a cell disruptor (Emulsiflex, Avestin). […] After subsequent rounds of washing with equilibration buffer supplemented with 0.1% Triton-X, or 1 M NaCl, the sample was eluted with Ni PNPCHis Elution Buffer (20 mM NaH2PO4, pH 8.0, 300 mM NaCl, 300 mM KCl, 5 mM MgCl2, 300 mM imidazole, pH 7.5, 10 mM β-mercaptoethanol). […] Fractions containing PNPase were run through a HiPrep™ 26/10 Desalting Column (GE Healthcare) and buffer exchanged to Q PNPCHis A (20 mM NaH2PO4, pH 8.0, 30 mM NaCl, 10% glycerol, 0.5 mM TCEP).
Interaction measurements were made using a Biacore T200 instrument (GE) at 25°C. PNPase with a 6xHisTag at the CTD was immobilized on a Series S Sensor Chip NTA (Cytiva) to provide a signal of 5 response units (RU). […] For the SPR analysis of the point mutants, binding to PNPase was measured at four different concentrations (0, 12.5, 25, and 50 nM). All concentrations were run in duplicates. The contact time was 60 s, while the dissociation time was 120 s, at a […] flow rate. […] The chip surface was regenerated with 350 mM EDTA in water, following manufacturer's instructions. Data were processed using the manufacturer’s BIAevaluation software.

[1] = molecular target: the molecule itself; test: SEC-MALS; Superdex 200 10/300 Increase, 100 µl at ~1 mg/ml, 25°C; buffer A (50 mM Tris pH 7.5, 100 mM NaCl, 100 mM KCl, 0.01% w/v b-DDM, 1 mM TCEP) or B (A without b-DDM) as Table S2 tells for each sample; the 1:1 ratio is one RNase E segment to one PNPase trimer (expected mass = trimer plus one segment)
[2] = SEC-MALLS molar mass of PNPase and PNPase/RNase E complexes; type: physicochemical
Procedure: Estimation of molar masses of PNPase and the various PNPase/RNase E complexes was carried out by size-exclusion chromatography with multi-angle laser light scattering (SEC-MALLS). Proteins (100 μl at ∼1 mg/ml concentration) were loaded onto a Superdex 200 10/300 Increase GL SEC column (GE Healthcare) at 0.5 ml/min using an AKTA Purifier FPLC system ([…]). Chromatograms were acquired using UNICORN software (GE Healthcare) at 280 nm. The eluent from the S200 column was analysed with an online DAWN HELEOS II MALLS instrument with eight detectors (Wyatt Technology), followed by an Optilab T-rEX differential refractometer (Wyatt Technology) at 25°C. Data collection and analysis were performed using ASTRA 6 software (Wyatt Technology). Eluted peaks from SEC column were evaluated by Zimm Plot, using a dn/dc value of 0.1850 ml/g. Bovine serum albumin was used as a standard to confirm the system performance (Supplementary Table S1).

E. coli PNPase = molecular target: B1; test: SEC-MALS; Superdex 200 10/300 Increase, 100 µl at ~1 mg/ml, 25°C; buffer A (50 mM Tris pH 7.5, 100 mM NaCl, 100 mM KCl, 0.01% w/v b-DDM, 1 mM TCEP) or B (A without b-DDM) as Table S2 tells for each sample; the 1:1 ratio is one RNase E segment to one PNPase trimer (expected mass = trimer plus one segment); settings: both partners purified
[3] = Superdex 200, 25°C, buffer B: A w/o bDDM

GAAGGHTATHHASAAPARPQPVE [RNase E 1039-1061]
KD range in words (PNPase; listed as RNase E peptide 1039–1061): micromolar range
KD range in words (PNPase; listed as residues 1039–1061): low μM range

B1
stoichiometry N [1]: 3

B2: RNase E 511-1061 (domain or fragment, E. coli, UniProt P21513 511-1061, looked up)
chain: ALPSEEEFAERKRPEQPALATFAMPDVPPAPTPAEPAAPVVAPAPKAAPATPAAPAQPGLLSRFFGALKALFSGGEETKPTEQPAPKAEAKPERQQDRRKPRQNNRRDRNERRDTRSERTEGSDNREENRRNRRQAQQQTAETRESRQQAEVTEKARTADEQQAPRRERSRRRNDDKRQAQQEAKALNVEEQSVQETEQEERVRPVQPRRKQRQLNQKVRYEQSVAEEAVVAPVVEETVAAEPIVQEAPAPRTELVKVPLPVVAQTAPEQQEENNADNRDNGGMPRRSRRSPRHLRVSGQRRRRYRDERYPTQSPMPLTVACASPELASGKVWIRYPIVRPQDVQVEEQREQEEVHVQPMVTEVPVAAAIEPVVSAPVVEEVAGVVEAPVQVAEPQPEVVETTHPEVIAAAVTEQPQVITESDVAVAQEVAEQAEPVVEPQEETADIEEVVETAEVVVAEPEVVAQPAAPVVAEVAAEVETVAAVEPEVTVEHNHATAPMTRAPAPEYVPEAPRHSDWQRPTFAFEGKGAAGGHTATHHASAAPARPQPVE
notes: The construct is described nowhere in the methods
Mn number-averaged solute molar mass [2, 3]: 63,870 Da
Mw weight-averaged solute molar mass [2, 3]: 64,020 Da
Difference Mn from expected mass ([2]; buffer B, expected: trimer:RNase E 1:1 ratio for complexes): 4.4%
stoichiometry N (E. coli PNPase): 1

B3: E. coli PNPase core, lacking S1 and KH domains (domain or fragment, UniProt P05055 1-552, looked up)
chain: MLNPIVRKFQYGQHTVTLETGMMARQATAAVMVSMDDTAVFVTVVGQKKAKPGQDFFPLTVNYQERTYAAGRIPGSFFRREGRPSEGETLIARLIDRPIRPLFPEGFVNEVQVIATVVSVNPQVNPDIVAMIGASAALSLSGIPFNGPIGAARVGYINDQYVLNPTQDELKESKLDLVVAGTEAAVLMVESEAQLLSEDQMLGAVVFGHEQQQVVIQNINELVKEAGKPRWDWQPEPVNEALNARVAALAEARLSDAYRITDKQERYAQVDVIKSETIATLLAEDETLDENELGEILHAIEKNVVRSRVLAGEPRIDGREKDMIRGLDVRTGVLPRTHGSALFTRGETQALVTATLGTARDAQVLDELMGERTDTFLFHYNFPPYSVGETGMVGSPKRREIGHGRLAKRGVLAVMPDMDKFPYTVRVVSEITESNGSSSMASVCGASLALMDAGVPIKAAVAGIAMGLVKEGDNYVVLSDILGDEDHLGDMDFKVAGSRDGISALQMDIKIEGITKEIMQVALNQAKGARLHILGVMEQAINAPRGDISEFA
notes: polynucleotide phosphorylase (PNPase), E. coli, core aa 1-552 by the methods (1-550 in the results), without the KH and S1 domains; The results and a legend give 1-550 for the core, the methods 1-552; source: E. coli Evo21(DE3), purified (Ni-NTA, intein cleavage, butyl, Q, SEC); not shown: Mycobacterium xenopi GyrA intein, C-terminal, cleaved; His8, C-terminal, cleaved
stoichiometry N [1]: 3
